Measured values: PMC7054047 (The FEBS journal, 2019)

Target: the molecule itself
Experiment: SEC

B1: WSCP M4FJ52 from Chinese cabbage (Brassica rapa subsp. Pekinensis) (natural protein)
chain: not shown
Question: With B1 as the protein, how does the “stoichiometry N” value read?
Answer: 4

B2: WSCP A0A087HRG5 from Arabis alpina (natural protein)
chain: not shown
Question: B2 was tested. Which “stoichiometry N” value did it give?
Answer: 4

B3: WSCP from Arabidopsis thaliana (natural protein, UniProt Q9C7S6 24-215, looked up)
chain: NEPVKDTAGNPLNTREQYFIQPVKTESKNGGGLVPAAITVLPFCPLGITQTLLPYQPGLPVSFVLALGVGSTVMTSSAVNIEFKSNIWPFCKEFSKFWEVDDSSSAPKEPSILIGGKMGDRNSSFKIEKAGEGARANVYKLTTFYGTVGAIPGVWLSAPQLIITKDTAKTLLVKFKKVDDATTATSNLYFPG
Question: With B3 as the protein, how does the “stoichiometry N” value read?
Answer: 4
